These results are taken from patent publication US20200017877.

What all share (assay): cell_activity
One data set deals with ssKissR3.2 left TALEN. Particulars: pair.
For another data set, the system named is btGDF83.1 left TALEN. Particulars: pair, cattle fibroblasts.
For another data set, the system named is ssEIF4GI14.1 right TALEN. Particulars: pair.
A further data set has as its system btGDF83.1 right TALEN. The conditions noted are these: pair, cattle fibroblasts.
The next data set deals with ssDAZL3.1 right TALEN. The conditions noted are these: pair.
In another data set the test system is caFecB6.1 right TALEN. Particulars: pair.
Another data set deals with ssDMDE6 left TALEN. The conditions noted are these: pair, pig fibroblasts.
A further data set relates to ssDMDE6 right TALEN. The conditions noted are these: pair, pig fibroblasts.
Another data set deals with btGDF83.6-G left TALEN. Particulars: pair, listed as btGDF83.6N.
In the next data set the test system is ssRAG2.1 left TALEN. Particulars: pair.
The subject of another data set is ssDMDE7.1 left TALEN. Particulars: pair, pig fibroblasts.
The next data set has as its system ssDMDE7.1 right TALEN. The conditions noted are these: pair, pig fibroblasts.
For another data set, the system named is ssLDLR2.1 right TALEN. The conditions noted are these: pair LDLRE2.1, pig male fibroblasts.
The subject of a further data set is ssSRY3.2 right TALEN. The conditions noted are these: pair.
Another data set relates to ssEIF4GI14.1 left TALEN. Particulars: pair.
The next data set relates to ssLDLR2.1 left TALEN. The conditions noted are these: pair LDLRE2.1, pig male fibroblasts.
Data set [1] concerns Kiss1.1a (tilapia) left TALEN. The conditions noted are these: pair, tilapia Kiss20; range 48-91; Kiss1.1a locus.
For a further data set, the system named is ssSRY3.2 left TALEN. Particulars: pair.
The next data set has as its system caFecB6.1 left TALEN. The conditions noted are these: pair.
A further data set relates to ssTp53 right TALEN. The conditions noted are these: pair.
A further data set relates to ssGDF83.6 left TALEN. Particulars: pair, 3/90.
The next data set concerns caCLPG1.1 left TALEN. Particulars: pair caCLPG1.1.
The test system of a further data set is caCLPG1.1 right TALEN. The conditions noted are these: pair; 0/14 colonies confirmed (Table 6).
A further data set relates to ssDAZL3.1 left TALEN. The conditions noted are these: pair.
The next data set concerns ssP65.8 left TALEN. Particulars: pair.
The next data set has as its system btRosa1.2 right TALEN. The conditions noted are these: pair.
Data set [2] has as its system Kiss1.1a (tilapia) right TALEN. Particulars: pair, tilapia Kiss20; range 48-91; Kiss1.1a locus.
For a further data set, the system named is btRosa1.2 left TALEN. Particulars: pair.
In a further data set the test system is ssTp53 left TALEN. Particulars: pair.
The subject of the next data set is ssP65.8 right TALEN. The conditions noted are these: pair.
The test system of a further data set is ssRAG2.1 right TALEN. Particulars: pair.
The test system of a further data set is ssAPC14.2 left TALEN. Particulars: pair.
A further data set relates to ssAPC14.2 right TALEN. The conditions noted are these: pair.
The test system of the next data set is btACAN12 left TALEN. Particulars: pair, cattle fibroblasts.
Another data set has as its system btACAN12 right TALEN. The conditions noted are these: pair, cattle fibroblasts.
A further data set has as its system btGDF83.6 right TALEN. The conditions noted are these: pair, listed as btGDF83.6N.
Another data set has as its system ssKissR3.2 right TALEN. The conditions noted are these: pair.
In another data set the test system is ssGDF83.6 right TALEN. Particulars: pair, 3/90.

In the data set on ssKissR3.2 left TALEN, “GCTCTACTCTACCCC (double strand) [KissR3.2 left half-site]” gave an activity of 53 % HDR day 3.

In the case of “GTGATGAACACTCCACAGAATCT (double strand) [GDF83.1 left half-site]”, in the data set with btGDF83.1 left TALEN, the activity (% modified day 3) was 17.

As for “AGCAACCGTGGGCCCCCA (double strand) [EIF4GI14.1 right half-site (sense strand)]”, the activity with ssEIF4GI14.1 right TALEN amounted to 52 % HDR day 3.

In the data set with btGDF83.1 right TALEN, “CTCTAACTGTGGATTTTGA (double strand) [GDF83.1 right half-site (sense strand)]” showed an activity (% modified day 3) of 17.

In the data set with ssDAZL3.1 right TALEN, “ATATGGTTCAGTAAAAG (double strand) [DAZL3.1 right half-site (sense strand)]” registered an activity of 25 % HDR day 3.

In turn, “ATATCAGACGGTGTTGATG (double strand) [FecB6.1 right half-site (sense strand)]” returned an activity in the data set on caFecB6.1 right TALEN of 17 % HDR day 3.

As to “TCTATACCTAGGTCAAAAATGTAATGAAGAAAGTATCAGTTAGGCATAGAGAAACTACTGGA (double strand) [DMD exon 6 target]”, the activity (% modified day 3) in the data set on ssDMDE6 left TALEN and with ssDMDE6 right TALEN was 25 throughout.

Regarding “GCTCTGGAGAATGT (double strand) [GDF83.6-G left half-site]”, the activity in the data set with btGDF83.6-G left TALEN was determined as 18 % HDR day 3.

In the data set on ssRAG2.1 left TALEN, “ACCTTCCTCCTCTCCGCT (double strand) [RAG2.1 left half-site]” yielded an activity of 47 % HDR day 3.

In the case of “GCCACACAACGACTGGAACATGCATTCAACATCGCCAAGTATCAGTTAGGCATAGAGAAACTACTGGATCCTGAAGGTT (double strand) [DMD exon 7 target]”, the activity (% modified day 3) in the data set with ssDMDE7.1 left TALEN and with ssDMDE7.1 right TALEN was 27 each time.

On to “AGTGCAAGGACGGGTCCG (double strand) [LDLR2.1 right half-site (sense strand)]”, for which, in the data set on ssLDLR2.1 right TALEN, the activity (% modified day 3) was found to be 19.

Consider “ATTAATGGCCTGAACCT (double strand) [SRY3.2 right half-site (sense strand)]”, for which the activity in the data set on ssSRY3.2 right TALEN was determined as 30 % HDR day 3.

On to “CCGTCCTTTGCCAACCTT (double strand) [EIF4GI14.1 left half-site]”, for which the activity with ssEIF4GI14.1 left TALEN amounted to 52 % HDR day 3.

In the case of “CTCCTACAAGTGGATTT (double strand) [LDLR2.1 left half-site]”, the activity (% modified day 3) in the data set on ssLDLR2.1 left TALEN turned out to be 19.

With “ACAACCCTCTCAGCCTT (double strand) [Kiss1.1a left half-site]”, the activity (% mosaic somatic mutation) in data set [1] was determined as 91.

“ATACATTTTACACACATAT (double strand) [SRY3.2 left half-site]” registered an activity in the data set on ssSRY3.2 left TALEN of 30 % HDR day 3.

Sequence “ACAGAGGAGGCCAGCTGGTT (double strand) [FecB6.1 left half-site]” had an activity in the data set with caFecB6.1 left TALEN of 17 % HDR day 3.

In the data set on ssTp53 right TALEN, “AAGTCAGAGTACATG (double strand) [Tp53 right half-site (sense strand)]” displayed an activity of 22 % HDR day 3.

The sequence “ACTGCTCTGGAGAGT (double strand) [ssGDF83.6 left half-site]” returned an activity (% HDR+ colonies) in the data set with ssGDF83.6 left TALEN of 3.

Consider “GAGAGCGCAGGAATCCAGG (double strand) [CLPG1.1 left half-site]”, for which the activity in the data set on caCLPG1.1 left TALEN was found to be 4 % HDR day 3.

The sequence “GCTGGGACCACCTGTCAG (double strand) [CLPG1.1 right half-site (sense strand)]” came in with an activity with caCLPG1.1 right TALEN of 4 % HDR day 3.

On to “GGATGAAACCGAAATT (double strand) [DAZL3.1 left half-site]”, for which, in the data set with ssDAZL3.1 left TALEN, the activity is 25 % HDR day 3.

Regarding “CTCCTCCATTGCGGA (double strand) [P65.8 left half-site]”, the activity in the data set on ssP65.8 left TALEN is 18 % HDR day 3.

On to “AGGTAGGGTGGAGAGAG (double strand) [Rosa1.2 right half-site (sense strand)]”, for which the activity in the data set on btRosa1.2 right TALEN is 45 % HDR day 3.

Sequence “ACAATGGCTACATTTAC (double strand) [Kiss1.1a right half-site (sense strand)]” showed an activity (% mosaic somatic mutation) in data set [2] of 91.

For the sequence “CTCGCATTGCCCACT (double strand) [Rosa1.2 left half-site]”, in the data set on btRosa1.2 left TALEN, the activity stood at 45 % HDR day 3.

As to “GGCACCCGTGTCCGCGC (double strand) [Tp53 left half-site]”, the activity in the data set on ssTp53 left TALEN amounted to 22 % HDR day 3.

“CTTCTGAGTCAGATC (double strand) [P65.8 right half-site (sense strand)]” showed an activity in the data set with ssP65.8 right TALEN of 18 % HDR day 3.

In the case of “ATTCAAAAGCAGCTTAG (double strand) [RAG2.1 right half-site (sense strand)]”, in the data set on ssRAG2.1 right TALEN, the activity is 47 % HDR day 3.

As for “GGAAGAAGTATCAGCCAT (double strand) [APC14.2 left half-site]”, the activity with ssAPC14.2 left TALEN is 48 % HDR day 3.

In turn, “ACAGAAATTCTGGGTC (double strand) [APC14.2 right half-site (sense strand)]” yielded an activity with ssAPC14.2 right TALEN of 48 % HDR day 3.

In the case of “CCCTCTTCCTTTCCTCCAGGGATCCCTCCTACATGGCCTCCCACTGGAGAAGCAACAGAGGAGCACACAGA (double strand) [ACAN12 target]”, the activity (% modified day 3) in the data set with btACAN12 left TALEN and with btACAN12 right TALEN was 29 throughout.

“AAAAGTATCCTCAT (double strand) [GDF83.6 right half-site (sense strand)]” registered an activity in the data set on btGDF83.6 right TALEN of 18 % HDR day 3.

For “TGGGCGACTTCATGTGC (double strand) [KissR3.2 right half-site (sense strand)]”, in the data set on ssKissR3.2 right TALEN, the activity was 53 % HDR day 3.

For “ACAAAAATACCCTCAC (double strand) [ssGDF83.6 right half-site (sense strand)]”, in the data set on ssGDF83.6 right TALEN, the activity (% HDR+ colonies) was 3.
